Measured values as given in the supplement of paper PMC6757056.
± gives the standard deviation of the averaged measurements.

B1: library; a variant is named by its letters at N, in order (parent)
chain: GCUGUCACCGGUGCUUGGUACGUUAUAUUCAGCCGGUCUGAUGAGUCUNNNNNNAGACGAAACAGC

Tests used:
(6R,S)-folinic acid [1] = variants of: B1; assay: FACS-Seq fitted mean relative fluorescence mCherry/BFP without ligand (log10 relative fluorescence); HEK293T overexpressing SLC46A1; higher = higher reporter protein expression; conditions: without (6R,S)-folinic acid; ligand present: no
In short: (§1)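 Fluorescence comes from a normal fit to bin counts, normalized against controls. HEK293T libraries lentivirally given a ribozyme-switch mCherry reporter and an EF1α-BFP marker were enriched, incubated 48 h with or without ligand, and sorted by mCherry/BFP into 6 bins. Bin genomic DNA was PCR-amplified, barcoded and sequenced on MiSeq. The log10(mCherry/BFP) mean was scaled to five spiked-in control ribozymes.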

(6R,S)-folinic acid [2] = variants of: B1; assay: normalized RNA/DNA level without ligand (relative to sTRSVctl = 100) (log10 (% of sTRSVctl)); HEK293T overexpressing SLC46A1; higher = less ribozyme self-cleavage, higher mRNA level; conditions: without (6R,S)-folinic acid; ligand present: no
Experimental: (§2)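 Hammerhead (sTRSV) ribozyme switch libraries with a ligand aptamer grafted on stem I and a randomized N4-6 loop II, cloned into the 3' UTR of mCherry and transiently transfected into HEK293T cells; RNA-Seq 72 h post transfection with ligand added 1 h before transfection; RNA read count / plasmid DNA read count normalized to the non-cleaving sTRSVctl (x100), log10; sequences with >100 DNA reads. FACS-Seq: lentiviral library sorted into 6 bins after 48 h ligand, log-normal fit mean of mCherry/BFP scaled to controls. Printed sequences are partial switch sequences.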

(6R,S)-folinic acid [3] = variants of: B1; assay: FACS-Seq fitted mean relative fluorescence mCherry/BFP with ligand (log10 relative fluorescence); HEK293T overexpressing SLC46A1; ligand concentration (+) FACS-Seq: 6 mM; higher = higher reporter protein expression; conditions: with (6R,S)-folinic acid; ligand present: yes
In short: as §1

(6R,S)-folinic acid [4] = variants of: B1; assay: normalized RNA/DNA level with ligand (relative to sTRSVctl = 100) (log10 (% of sTRSVctl)); HEK293T overexpressing SLC46A1; ligand concentration (+) RNA-Seq: 6 mM; higher = less ribozyme self-cleavage, higher mRNA level; conditions: with (6R,S)-folinic acid; ligand present: yes
Experimental: as §2

Variant | FACS-Seq fitted mean (log10) ((6R,S)-folinic acid [1]) | normalized RNA/DNA level without ligand (log10) ((6R,S)-folinic acid [2]) | FACS-Seq fitted mean (log10) ((6R,S)-folinic acid [3]) | normalized RNA/DNA level with ligand (log10) ((6R,S)-folinic acid [4])
UAUCAA | 0.142 ± 0.016 | 1.957 ± 0.019 | 0.277 ± 0.084 | 2 ± 0.053
AAUAAA | -0.274 ± 0.037 | 1.971 ± 0.009 | -0.301 ± 0.1 | 2 ± 0.025
AAUAAC | 0.221 ± 0.049 | 1.979 ± 0.0049 | 0.377 ± 0.048 | 1.99 ± 0.035
AAUAAG | 0.271 ± 0.2 | 1.9 ± 0.024 | 0.323 ± 0.13 | 1.98 ± 0.038
AAUAAU | 0.5328 ± 0.0041 | 1.968 ± 0.0071 | 0.56 ± 0.14 | 2.003 ± 0.011
AAUCUA | 0.267 ± 0.13 | 1.99 ± 0.013 | 0.439 ± 0.27 | 2.014 ± 0.013
AAUCUU | 0.524 ± 0.12 | 2.002 ± 0.013 | 0.276 ± 0.024 | 2.013 ± 0.017
GAUAAU | 0.0792 ± 0.026 | 1.97 ± 0.02 | 0.23 ± 0.02 | 2.01 ± 0.037
GAUAAC | 0.223 ± 0.036 | 1.972 ± 0.012 | 0.5 ± 0.022 | 2.01 ± 0.014
GAUAAA | 0.3694 ± 0.0011 | 1.956 ± 0.0085 | 0.397 ± 0.027 | 2 ± 0.034
AAGUGA | 0.288 ± 0.021 | 1.952 ± 0.003 | 0.42 ± 0.11 | 2.03 ± 0.021
AAGUGU | 0.173 ± 0.16 | 1.94 ± 0.015 | 0.597 ± 0.37 | 2.01 ± 0.029
UAGGAA | 0.503 ± 0.15 | 1.884 ± 0.01 | 0.822 ± 0.011 | 1.98 ± 0.038
UAGGAU | 0.37 ± 0.051 | 1.9235 ± 0.00039 | 0.358 ± 0.23 | 2 ± 0.052
UAGGAC | 0.556 ± 0.12 | 1.982 ± 0.019 | 0.551 ± 0.11 | 2 ± 0.025
UAUAAU | 0.283 ± 0.048 | 1.941 ± 0.0058 | 0.412 ± 0.033 | 1.996 ± 0.016
UAUAAA | 0.216 ± 0.075 | 1.92 ± 0.0034 | 0.0605 ± 0.19 | 1.97 ± 0.022
UAUAAG | 0.158 ± 0.15 | 1.688 ± 0.0045 | 0.476 ± 0.26 | 1.93 ± 0.027

Variant | FACS-Seq fitted mean (log10) ((6R,S)-folinic acid [1]) | normalized RNA/DNA level without ligand (log10) ((6R,S)-folinic acid [2]) | FACS-Seq fitted mean (log10) ((6R,S)-folinic acid [3]) | normalized RNA/DNA level with ligand (log10) ((6R,S)-folinic acid [4])
UAGCAU | 0.36 ± 0.07 | 1.942 ± 0.0083 | 0.328 ± 0.2 | 2 ± 0.042
UAGCAG | 0.207 ± 0.14 | 1.755 ± 0.0028 | 0.401 ± 0.18 | 1.957 ± 0.019
GAGGAU | 0.372 ± 0.013 | 1.963 ± 0.0066 | 0.0226 ± 0.65 | 2.02 ± 0.033
CAUAAA | 0.548 ± 0.05 | 1.9396 ± 0.0016 | 0.402 ± 0.075 | 1.96 ± 0.033
CAUAAU | 0.15 ± 0.15 | 1.955 ± 0.011 | 0.294 ± 0.038 | 1.997 ± 0.013
CAUAAC | 0.339 ± 0.16 | 1.973 ± 0.0067 | 0.355 ± 0.045 | 1.97 ± 0.038
GAGUGC | 0.283 ± 0.14 | 1.944 ± 0.0043 | 0.338 ± 0.15 | 2.03 ± 0.039
GAGUGG | 0.427 ± 0.07 | 1.914 ± 0.0062 | 0.493 ± 0.18 | 2.01 ± 0.046
GAGUGU | 0.00433 ± 0.11 | 1.97 ± 0.01 | 0.322 ± 0.027 | 2.04 ± 0.025
GAGUGA | 0.213 ± 0.11 | 1.96 ± 0.023 | 0.443 ± 0.15 | 2 ± 0.043
AAUCCA | 0.639 ± 0.012 | 1.995 ± 0.015 | 0.486 ± 0.014 | 1.99 ± 0.029
AAUCCU | 0.552 ± 0.046 | 2.051 ± 0.0088 | 0.476 ± 0.068 | 2.06 ± 0.019
AAUAGG | 0.164 ± 0.037 | 1.877 ± 0.0074 | 0.334 ± 0.2 | 1.99 ± 0.028
AAUAGA | 0.354 ± 0.04 | 1.96 ± 0.024 | 0.344 ± 0.043 | 2.01 ± 0.034
AAUAGU | 0.361 ± 0.12 | 1.928 ± 0.0047 | 0.623 ± 0.097 | 1.978 ± 0.018
UAGAUG | 0.3 ± 0.084 | 1.702 ± 0.0024 | 0.477 ± 0.13 | 1.97 ± 0.043
CAGGAC | 0.301 ± 0.073 | 1.97 ± 0.022 | 0.0891 ± 0.079 | 1.97 ± 0.078
AAUGAG | 0.455 ± 0.051 | 1.778 ± 0.0047 | 0.7222 ± 0.0013 | 1.97 ± 0.021
